Measurements as given in paper PMC10922510.
pKd: −log10 of the molar value.

Tests used:
Assay in all cases: BLI
[1] = molecular target: biotinylated human FcγRIIa-131H extracellular domain with AviTag (human) (UniProt P12318)
[2] = molecular target: biotinylated human FcγRIIa-131R extracellular domain with AviTag (human) (UniProt P12318)
[3] = molecular target: biotinylated human FcγRIIb extracellular domain with AviTag (human) (UniProt P31994)
[4] = molecular target: biotinylated human FcγRIIIa-176V extracellular domain with AviTag (human) (UniProt P08637)
Chain of UniProt P08637 (P08637 17-208 F176V): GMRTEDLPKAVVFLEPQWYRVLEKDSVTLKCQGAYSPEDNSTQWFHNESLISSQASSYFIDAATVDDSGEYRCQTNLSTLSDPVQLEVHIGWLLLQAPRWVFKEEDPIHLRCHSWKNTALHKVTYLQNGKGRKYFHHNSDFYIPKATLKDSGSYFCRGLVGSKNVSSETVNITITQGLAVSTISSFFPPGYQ

Chain of UniProt P31994 (P31994 43-217): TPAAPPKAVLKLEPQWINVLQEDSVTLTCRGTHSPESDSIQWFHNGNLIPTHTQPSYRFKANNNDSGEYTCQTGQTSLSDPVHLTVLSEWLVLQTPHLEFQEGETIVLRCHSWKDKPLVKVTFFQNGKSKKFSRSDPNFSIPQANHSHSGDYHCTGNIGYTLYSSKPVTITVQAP

pKd [1]	pKd [2]	pKd [3]	pKd [4]	Substance
6.92	6.68			human IgG1 trastuzumab with Fc mutation G236A (antibody)
		6.51		human IgG1 trastuzumab with Fc mutation P238D (antibody)
6.54	6.21	6.44	6.21	human IgG1 trastuzumab, wild-type Fc (antibody)
